Measured values from patent publication US20040265963A1 (UNIVERSITY OF FLORIDA RESEARCH FOUNDATION, published 2004).
Ends that are not written are not given here. * marks the point of attachment. Biotin = O=C1N[C@H]2[C@H](CS[C@H]2CCCCC(=O)*)N1

Key:
Experiment in all cases: ELISA, biotinylated JAK2 WT on plate-coated control peptide (FIG. 1A)
[1] = target: T1, CDK-2 cyclin box peptide (cyclin-dependent kinase, cyclin box peptide 41-61)
T1 construct: Control peptide; also called CDK 41-61
T1 peptide: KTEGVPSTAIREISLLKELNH

[2] = target: T2, VEGFR peptide (vascular endothelial growth factor receptor autophosphorylation peptide VEGFR 1208-1222)
T2 construct: Control peptide
T2 peptide: SSDVRYVNAFKFM

MuIFN-γ(95-125) peptide = target: T3, MuIFN-γ(95-125) peptide (murine)
T3 construct: Control peptide; numbering is on the mature form of murine IFN-γ
T3 peptide: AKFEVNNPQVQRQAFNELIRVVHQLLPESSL

Measured: binding result

B1: biotinylated JAK2 WT peptide (JAK2 autophosphorylation peptide, residues 1001-1013, LPQDKEYYKVKEP) (peptide)
peptide: Biotin-LPQDKEYYKVKEP
notes: Synthetic peptide, biotin incorporated at the N-terminus during synthesis; not phosphorylated at Y1007; also called wild type JAK2 peptide; unphosphorylated JAK2 WT
no binding: all assays above
